Assay results taken from patent US20100040606A1 (SYMPHOGEN A S, published 2010).

T1: recombinant human fractalkine (CX3CL1; R&D systems) (human, UniProt P78423 25-100)
T1 sequence (looked up): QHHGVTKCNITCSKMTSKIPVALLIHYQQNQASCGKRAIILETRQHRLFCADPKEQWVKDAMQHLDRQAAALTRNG

T2: soluble recombinant G protein (amino acids 66-292 of the 18537 strain sequence) (RSV strain 18537 (subtype B), UniProt P20896 66-292)
T2 construct: also called G(B); recombinant protein G
T2 sequence: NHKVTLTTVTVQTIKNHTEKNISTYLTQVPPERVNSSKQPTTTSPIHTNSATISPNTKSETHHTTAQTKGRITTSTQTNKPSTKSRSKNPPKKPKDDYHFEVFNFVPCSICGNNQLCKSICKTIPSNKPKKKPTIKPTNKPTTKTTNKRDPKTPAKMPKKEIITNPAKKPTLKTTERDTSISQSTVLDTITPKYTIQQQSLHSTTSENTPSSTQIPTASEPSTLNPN

B1: Palivizumab (antibody, V domains shown)
VH: QVTLRESGPALVKPTQTLTLTCTFSGFSLSTSGMSVGWIRQPPGKALEWLADIWWDDKKDYNPSLKSRLTISKDTSKNQVVLKVTNMDPADTATYYCARSMITNWYFDVWGAGTTVTVSS
VL: DIQMTQSPSTLSASVGDRVTITCKCQLSVGYMHWYQQKPGKAPKLLIYDTSKLASGVPSRFSGSGSGTEFTLTISSLQPDDFATYYCFQGSGYPFTFGGGTKLEIK
B2: antibody from clone 835 (antibody, human IgG1, kappa, V domains shown)
VH: QVQLVQSGAEVKRPGASVKVSCKASGYTFISYGFSWVRQAPGQGLEWMGWSSVYNGDTNYAQKFHGRVNMTTDTSTNTAYMELRGLRSDDTAVYFCARDRNVVLLPAAPFGGMDVWGQGTMVTVSS
VL: DIQLTQSPSFLSASLEDRVTITCRASQGISSYLAWYQQKPGKAPKLLLDAASTLQSGVPSRFSGSGSGTEFTLTISSLQPEDFATYYCQQLNSYPRTFGQGTKVDIKR
B3: antibody from clone 888 (antibody, human IgG1, kappa, V domains shown)
VH: QLQLQESGPGLVKPSETLSLTCTASGGSINSSNFYWGWIRQPPGKGLEWIGSIFYSGTTYYNPSLKSRVTISVDTSKNQFSLKLSPVTAADTAVYHCARHGFRYCNNGVCSINLDAFDIWGQGTMVTVSS
VL: DIVMTQSPLSLPVTPGAPASISCRSSQSLLRTNGYNYLDWYLQKPGQSPQLLIYLGSIRASGVPDRFSGSGSGTDFTLKISRVEAEDVGVYYCMQSLQTSITFGQGTRLEIKR
B4: Fab fragment of antibody from clone 816 (Fab, V domains shown)
VH: EVQLLESGGGLVQPGGSLRLSCVASGFTFSTYAMTWVRQAPGKGLEWVSVIRASGDSEIYADSVRGRFTISRDNSKNTVFLQMDSLRVEDTAVYFCANIGQRRYCSGDHCYGHFDYWGQGTLVTVSS
VL: DIVMTQSPLSLPVTPGEPASISCRSSQSLLHSDGRYYVDWYLQKPGQSPHLLIYLASNRASGVPDRFTGSGSGTDFTLKISRVEAEDVGVYYCMQGLHTPWTFGQGTKVDIKR
B5: antibody from clone 816 (antibody, human IgG1, kappa, V domains shown)
VH: EVQLLESGGGLVQPGGSLRLSCVASGFTFSTYAMTWVRQAPGKGLEWVSVIRASGDSEIYADSVRGRFTISRDNSKNTVFLQMDSLRVEDTAVYFCANIGQRRYCSGDHCYGHFDYWGQGTLVTVSS
VL: DIVMTQSPLSLPVTPGEPASISCRSSQSLLHSDGRYYVDWYLQKPGQSPHLLIYLASNRASGVPDRFTGSGSGTDFTLKISRVEAEDVGVYYCMQGLHTPWTFGQGTKVDIKR
B6: antibody from clone 856 (antibody, human IgG1, kappa, V domains shown)
VH: QVQLVQSGAEVKKPGASVKVSCKASGYTFSNYGFSWVRQAPGRGLEWMGWISAYNGNTYYAQNLQGRVTMTTDTSTTTAYMVLRSLRSDDTAMYYCARDGNTAGVDMWSRDGFDIWGQGTMVTVSS
VL: DIVMTQTPLSLPVTPGEPASISCRSSQSLLDSNDGNTYLDWYLQKPGQSPQLLIYTFSYRASGVPDRFSGSGSGTDFTLKISRVEAEDVGVYYCMQRIEFPYTFGQGTKLEIKR
B7: antibody from clone 855 (antibody, human IgG1, kappa, V domains shown)
VH: QVQLVQSGPEVKKPGASVKVSCKASGYVLTNYAFSWVRQAPGQGLEWLGWISGSNGNTYYAEKFQGRVTMTTDTSTSTAYMELRSLRSDDTAVYFCARDLLRSTYFDYWGQGTLVTVSS
VL: DIQMTQSPSSVSASVGDRVTITCRASQAISNWLAWYQQKPGKAPKLLIYAASSLQSGVPSRFSGSGSGTDFTLTISGLQPEDFATYYCQQADTFPFTFGPGTKVDIKR
B8: antibody from clone 841 (antibody, human IgG1, kappa, V domains shown)
VH: QVQLVQSGAEVKKPGASVKVSCKASGYTFISFGISWVRQAPGQGLEWMGWISAYNGNTDYAQRLQDRVTMTRDTATSTAYLELRSLKSDDTAVYYCTRDESMLRGVTEGFGPIDYWGQGTLVTVSS
VL: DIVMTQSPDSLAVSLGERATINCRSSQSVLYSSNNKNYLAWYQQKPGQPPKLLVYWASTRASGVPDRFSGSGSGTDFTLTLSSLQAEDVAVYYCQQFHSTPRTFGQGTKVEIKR
B9: Fab fragment of antibody from clone 796 (Fab, V domains shown)
VH: QVQLVESGGGVVQPGRSLRLSCAASGFSFSHFGMHWVRQVPGKGLEWVAIISYDGNNVHYADSVKGRFTISRDNSKNTLFLQMNSLRDDDTGVYYCAKDDVATDLAAYYYFDVWGRGTLVTVSS
VL: DIVMTQTPLSLSVTPGQPASISCRSSQSLLRSDGKTFLYWYLQKPGQSPQPLMYEVSSRFSGVPDRFSGSGSGADFTLNISRVETEDVGIYYCMQGLKIRRTFGPGTKVEIKR
notes: also called Fab clone 796; 796 (G)
B10: Fab fragment of antibody from clone 811 (Fab, V domains shown)
VH: QVQLVQSGAVVETPGASVKVSCKASGYIFGNYYIHWVRQAPGQGLEWMAVINPNGGSTTSAQKFQDRITVTRDTSTTTVYLEVDNLRSEDTATYYCARQRSVTGGFDAWLLIPDASNTWGQGTMVTVSS
VL: DIVMTQSPDSLAVSLGERATINCRSSETVLYTSKNQSYLAWYQQKARQPPKLLLYWASTRESGVPARFSGSGSGTDFTLAISSLQAEDVAVYYCQQFFRSPFTFGPGTRLEIKR
notes: also called Fab clone 811; 811 (G)
B11: antibody from clone 853 (antibody, human IgG1, kappa, V domains shown)
VH: EVQLVQSGAEVKKPGQSLKISCKTSGYIFTNYWIGWVRQRPGKGLEWMGVIFPADSDARYSPSFQGQVTISADKSIGTAYLQWSSLKASDTAIYYCARPKYYFDSSGQFSEMYYFDFWGQGTLVTVSS
VL: EIVLTQSPGTLSLSPGERATLSCRASQSVSSNYLAWYQQKPGQAPRLLIYGASSRAAGMPDRFSGSGSGTDFTLTISRLEPEDFAVYYCQQYGNSPLTFGGGTEVEIKR
B12: Fab fragment of antibody from clone 853 (Fab, V domains shown)
VH: EVQLVQSGAEVKKPGQSLKISCKTSGYIFTNYWIGWVRQRPGKGLEWMGVIFPADSDARYSPSFQGQVTISADKSIGTAYLQWSSLKASDTAIYYCARPKYYFDSSGQFSEMYYFDFWGQGTLVTVSS
VL: EIVLTQSPGTLSLSPGERATLSCRASQSVSSNYLAWYQQKPGQAPRLLIYGASSRAAGMPDRFSGSGSGTDFTLTISRLEPEDFAVYYCQQYGNSPLTFGGGTEVEIKR
notes: also called Fab clone 853; 853 (G)
B13: Fab fragment of antibody from clone 838 (Fab, V domains shown)
VH: QVQLVESGGGVVQPGTSLRLSCAASGFTFSTFGMHWVRQAPGKGLEWVAVISYDGNKKYYADSVKGRFTISRDNSKNTLYLQVNSLRVEDTAVYYCAAQTPYFNESSGLVPDWGQGTLVTVSS
VL: DIQMTQSPSSLSASVGDRVSITCRASQGISNYLAWYQQKPGKVPKLLIYAASTLQSGVPSRFSGSGSGTDFTLTISSLQPEDVATYYCQKYNSAPQTFGQGTKVEIKR
notes: also called Fab clone 838; 838 (G)
B14: Fab fragment of antibody from clone 859 (Fab, V domains shown)
VH: QVQLVESGGGVVQPGRSLRLSCAVSGSSFSKYGIHWVRQAPGKGLEWVAVISYDGSKKYFTDSVKGRFTIARDNSQNTVFLQMNSLRAEDTAVYYCATGGGVNVTSWSDVEHSSSLGYWGLGTLVTVSS
VL: DIQMTQSPSSLSASVGDRVTITCRASQGIRNYLAWYQQKPGKVPKLLVFAASTLQSGVPSRFSGSGSGTDFTLTISSLQPEDVATYYCQRYNSAPLTFGGGTKVEIKR
notes: also called Fab clone 859; 859 (G)
B15: antibody from clone 793 (antibody, human IgG1, kappa, V domains shown)
VH: QVQLVESGGGLVKPGGSLRLSCAASGFPFGDYYMSWIRQAPGKGLEWVAYINRGGTTIYYADSVKGRFTISRDNAKNSLFLQMNSLRAGDTALYYCARGLILALPTATVELGAFDIWGQGTMVTVSS
VL: DIQMTQSPSSLSASVGDRVTITCRASQSITGYLNWYQQKPGKAPKLLIYATSTLQSEVPSRFSGSGSGTDFTLTISSLQPEDFATYYCQQSYNTLTFGGGTKVEIKR

Key:
[1] = target: RSV protein F (fusion glycoprotein), recombinant or purified (human respiratory syncytial virus, …, UniProt P03420 26-109; P03420 137-524); assay: cell-based or functional assay
RSV protein F (fusion glycoprotein), recombinant or purified, sequence (P03420 26-109, chain 1 of 2): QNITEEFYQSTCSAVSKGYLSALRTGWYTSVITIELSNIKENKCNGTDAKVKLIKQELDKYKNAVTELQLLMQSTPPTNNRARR
RSV protein F (fusion glycoprotein), recombinant or purified, sequence (P03420 137-524, chain 2 of 2): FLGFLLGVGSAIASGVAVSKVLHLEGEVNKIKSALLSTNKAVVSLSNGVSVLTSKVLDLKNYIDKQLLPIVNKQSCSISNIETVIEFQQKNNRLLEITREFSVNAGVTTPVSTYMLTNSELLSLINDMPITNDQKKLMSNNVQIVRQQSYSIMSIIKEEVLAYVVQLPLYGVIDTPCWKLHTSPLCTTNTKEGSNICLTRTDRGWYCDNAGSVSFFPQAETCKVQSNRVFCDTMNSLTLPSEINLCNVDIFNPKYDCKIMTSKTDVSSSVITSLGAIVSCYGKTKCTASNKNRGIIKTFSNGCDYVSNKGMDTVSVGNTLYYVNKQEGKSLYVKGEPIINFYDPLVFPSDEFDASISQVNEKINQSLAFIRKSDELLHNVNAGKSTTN

[2] = target: T1, recombinant human fractalkine (CX3CL1; …); assay: ELISA
[3] = target: RSV G protein (receptor-binding glycoprotein) (human respiratory syncytial virus, …); assay: cell-based or functional assay
[4] = target: T2, soluble recombinant G protein (amino …); assay: SPR (Biacore 3000), Fab over immobilised recombinant antigen;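 further: antigen immobilised on CM5 chip at very low density (about 50 RU), rate constants fitted globally with a 1:1 Langmuir model, Fabs obtained by enzymatic cleavage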

| Binder | EC50, PRNT with complement, RSV subtype A [1] [µg/mL] | binding result [2] | EC50, PRNT with complement, RSV subtype A [3] [µg/mL] | Kd [4] [nM] | koff [4] [s⁻¹] | kon [4] [M⁻¹ s⁻¹] | t1/2 [4] [h] |
| --- | --- | --- | --- | --- | --- | --- | --- |
| B1 | 0.14 | – | – | – | – | – | – |
| B2 | – | no binding | – | – | – | – | – |
| B3 | – | no binding | 0.14 | – | – | – | – |
| B4 | – | – | – | 0.09 | 0.000178 | 2.02e+06 | 1.08 |
| B5 | – | no binding | – | – | – | – | – |
| B6 | – | no binding | – | – | – | – | – |
| B7 | – | no binding | 6.35 | – | – | – | – |
| B8 | – | no binding | – | – | – | – | – |
| B9 | – | – | – | 0.48 | 0.000403 | 833000 | 0.478 |
| B10 | – | – | – | 0.34 | 0.000171 | 498000 | 1.13 |
| B11 | – | no binding | 1.49 | – | – | – | – |
| B12 | – | – | – | 0.79 | 0.0014 | 1.77e+06 | 0.138 |
| B13 | – | – | – | 0.19 | 5.06e-05 | 264000 | 3.83 |
| B14 | – | – | – | 0.12 | 4.63e-05 | 380000 | 4.17 |
| B15 | – | no binding | 2.52 | – | – | – | – |
